Experimental data as given in article PMC6884549, “Alkyladenine DNA glycosylase associates with transcription elongation to coordinate DNA repair with gene expression” (Nature Communications, 2019).

B1: FLAG-tagged ELP1, purified recombinant (natural protein, human, UniProt O95163 1-1332, looked up)
chain: MRNLKLFRTLEFRDIQGPGNPQCFSLRTEQGTVLIGSEHGLIEVDPVSREVKNEVSLVAEGFLPEDGSGRIVGVQDLLDQESVCVATASGDVILCSLSTQQLECVGSVASGISVMSWSPDQELVLLATGQQTLIMMTKDFEPILEQQIHQDDFGESKFITVGWGRKETQFHGSEGRQAAFQMQMHESALPWDDHRPQVTWRGDGQFFAVSVVCPETGARKVRVWNREFALQSTSEPVAGLGPALAWKPSGSLIASTQDKPNQQDIVFFEKNGLLHGHFTLPFLKDEVKVNDLLWNADSSVLAVWLEDLQREESSIPKTCVQLWTVGNYHWYLKQSLSFSTCGKSKIVSLMWDPVTPYRLHVLCQGWHYLAYDWHWTTDRSVGDNSSDLSNVAVIDGNRVLVTVFRQTVVPPPMCTYQLLFPHPVNQVTFLAHPQKSNDLAVLDASNQISVYKCGDCPSADPTVKLGAVGGSGFKVCLRTPHLEKRYKIQFENNEDQDVNPLKLGLLTWIEEDVFLAVSHSEFSPRSVIHHLTAASSEMDEEHGQLNVSSSAAVDGVIISLCCNSKTKSVVLQLADGQIFKYLWESPSLAIKPWKNSGGFPVRFPYPCTQTELAMIGEEECVLGLTDRCRFFINDIEVASNITSFAVYDEFLLLTTHSHTCQCFCLRDASFKTLQAGLSSNHVSHGEVLRKVERGSRIVTVVPQDTKLVLQMPRGNLEVVHHRALVLAQIRKWLDKLMFKEAFECMRKLRINLNLIYDHNPKVFLGNVETFIKQIDSVNHINLFFTELKEEDVTKTMYPAPVTSSVYLSRDPDGNKIDLVCDAMRAVMESINPHKYCLSILTSHVKKTTPELEIVLQKVHELQGNAPSDPDAVSAEEALKYLLHLVDVNELYDHSLGTYDFDLVLMVAEKSQKDPKEYLPFLNTLKKMETNYQRFTIDKYLKRYEKAIGHLSKCGPEYFPECLNLIKDKNLYNEALKLYSPSSQQYQDISIAYGEHLMQEHMYEPAGLMFARCGAHEKALSAFLTCGNWKQALCVAAQLNFTKDQLVGLGRTLAGKLVEQRKHIDAAMVLEECAQDYEEAVLLLLEGAAWEEALRLVYKYNRLDIIETNVKPSILEAQKNYMAFLDSQTATFSRHKKRLLVVRELKEQAQQAGLDDEVPHGQESDLFSETSSVVSGSEMSGKYSHSNSRISARSSKNRRKAERKKHSLKEGSPLEDLALLEALSEVVQNTENLKDEVYHILKVLFLFEFDEQGRELQKAFEDTLQLMERSLPEIWTLTYQQNSATPVLGPNSTANSIMASYQQQKTSVPVLDAELFIPPKINRRTQWKLSLLD
notes: ELP1 (IKBKAP), cDNA excised from pCMV6-XL5-ELP1 (OriGene) and inserted into pcDNA3.1(+)-3xFLAG; Seen as a dimer after BS3 cross-linking; Purified in one step from human cells, so other Elongator subunits might be present (my surmise); also called FLAG-ELP1; ELP1 dimer

Columns and labels:
[1] = molecular target: the molecule itself; test: cross-linking; 10 µM of purified proteins in 0.1 M sodium phosphate, 0.15 M NaCl, pH 7.4, 30 min at RT; BS3 at 0, 0.1 and 0.5 mM for 1 h at 4 °C; gel shift read by immunoblot; single proteins with the highest amount of BS3 as controls
[2] = molecular target: B1; test: co-IP; purified proteins: 1 µg of protein with 1 µg of antibody overnight at 4 °C in 200 µl IP buffer (20 mM HEPES pH 7.9, 140 mM NaCl, 0.01% NP-40), Protein-A sepharose beads, immunoblot; conditions: both partners purified

| binding result [2] | Binder | stoichiometry N [1] |
| --- | --- | --- |
|  | B1 | 2 |
| binds | AAG lacking 80 N-terminal amino acids, purified recombinant (domain or fragment, human, UniProt P29372 81-298, looked up, Alkyladenine DNA glycosylase (AAG, MPG), human, lacking the first 80 N-terminal amino acids; also called Δ80 AAG; ∆80AAG) GHLTRLGLEFFDQPAVPLARAFLGQVLVRRLPNGTELRGRIVETEAYLGPEDEAAHSRGGRQTPRNRGMFMKPGTLYVYIIYGMYFCMNISSQGDGACVLLRALEPLEGLETMRQLRSTLRKGTASRVLKDRELCSGPSKLCQALAINKSFDQRDLAQDEAVWLERGPLEPSEPAVVAAARVGVGHAGEWARKPLRFYVRGSPWVSVVDRVAEQDTQA |  |
